Measured values from patent US20220308072A1.

What was measured:
[1] = biological target: Recombinant, his tagged full length human frataxin protein (Abcam ab95502) (human) (UniProt Q16595); test: Simoa sandwich 2-step; capture Ab-2
[2] = biological target: Recombinant, his tagged full length human frataxin protein (Abcam ab95502) (human) (UniProt Q16595); test: Simoa sandwich 2-step; capture Ab-1
[3] = biological target: Recombinant, his tagged full length human frataxin protein (Abcam ab95502) (human) (UniProt Q16595); test: Simoa sandwich; capture Ab-1; no helper beads
[4] = biological target: Recombinant, his tagged full length human frataxin protein (Abcam ab95502) (human) (UniProt Q16595); test: Simoa sandwich 2-step; capture Ab-1; 50 pM SβG
[5] = biological target: Recombinant, his tagged full length human frataxin protein (Abcam ab95502) (human) (UniProt Q16595); test: Simoa sandwich 2-step; capture Ab-1; 150 pM SβG
[6] = biological target: Recombinant, his tagged full length human frataxin protein (Abcam ab95502) (human) (UniProt Q16595); test: Simoa sandwich 2-step; capture Ab-1; frataxin 167 pg/mL
[7] = biological target: Recombinant, his tagged full length human frataxin protein (Abcam ab95502) (human) (UniProt Q16595); test: Simoa sandwich 2-step; capture Ab-4; frataxin 1000 pg/mL
[8] = biological target: Recombinant, his tagged full length human frataxin protein (Abcam ab95502) (human) (UniProt Q16595); test: Simoa sandwich 2-step; capture Ab-2; frataxin 55.6 pg/mL
[9] = biological target: Recombinant, his tagged full length human frataxin protein (Abcam ab95502) (human) (UniProt Q16595); test: Simoa sandwich 2-step; capture Ab-2; frataxin 6.17 pg/mL
[10] = biological target: Recombinant, his tagged full length human frataxin protein (Abcam ab95502) (human) (UniProt Q16595); test: Simoa sandwich 3-step; capture Ab-1; frataxin 10000 pg/mL
[11] = biological target: Recombinant, his tagged full length human frataxin protein (Abcam ab95502) (human) (UniProt Q16595); test: Simoa sandwich 2-step; capture Ab-1; 50 pM SβG; frataxin 500 pg/mL
[12] = biological target: Recombinant, his tagged full length human frataxin protein (Abcam ab95502) (human) (UniProt Q16595); test: Simoa sandwich; capture Ab-1; no helper beads; frataxin 6.17 pg/mL
[13] = biological target: Recombinant, his tagged full length human frataxin protein (Abcam ab95502) (human) (UniProt Q16595); test: Simoa sandwich; capture Ab-1; no helper beads; frataxin 0.686 pg/mL
[14] = biological target: Recombinant, his tagged full length human frataxin protein (Abcam ab95502) (human) (UniProt Q16595); test: Simoa sandwich 2-step; capture Ab-1; 150 pM SβG; frataxin 6.17 pg/mL
[15] = biological target: Recombinant, his tagged full length human frataxin protein (Abcam ab95502) (human) (UniProt Q16595); test: Simoa sandwich 2-step; capture Ab-1; 50 pM SβG; frataxin 0.686 pg/mL
[16] = biological target: Recombinant, his tagged full length human frataxin protein (Abcam ab95502) (human) (UniProt Q16595); test: Simoa sandwich 2-step (120 min-5 min); capture Ab-1; frataxin 667 pg/mL
[17] = biological target: Recombinant, his tagged full length human frataxin protein (Abcam ab95502) (human) (UniProt Q16595); test: Simoa sandwich 2-step (120 min-5 min); capture Ab-1; frataxin 2.74 pg/mL
[18] = biological target: Recombinant, his tagged full length human frataxin protein (Abcam ab95502) (human) (UniProt Q16595); test: Simoa sandwich 2-step (120 min-5 min); capture Ab-1; frataxin 24.7 pg/mL
[19] = biological target: Recombinant, his tagged full length human frataxin protein (Abcam ab95502) (human) (UniProt Q16595); test: Simoa sandwich 2-step (35 min-5 min); capture Ab-1; with helper beads; frataxin 500 pg/mL
[20] = biological target: Recombinant, his tagged full length human frataxin protein (Abcam ab95502) (human) (UniProt Q16595); test: Simoa sandwich 2-step (120 min-5 min); capture Ab-1; Diluent 1 + 5% NCS; frataxin 2.47 pg/mL
[21] = biological target: Recombinant, his tagged full length human frataxin protein (Abcam ab95502) (human) (UniProt Q16595); test: Simoa sandwich 2-step (120 min-5 min); capture Ab-1; Diluent 1 + 5% NCS; frataxin 66.7 pg/mL
[22] = biological target: Recombinant, his tagged full length human frataxin protein (Abcam ab95502) (human) (UniProt Q16595); test: Simoa sandwich 2-step (120 min-5 min); capture Ab-1; Diluent 1 + 5% NCS; frataxin 7.41 pg/mL
[23] = biological target: Recombinant, his tagged full length human frataxin protein (Abcam ab95502) (human) (UniProt Q16595); test: Simoa sandwich 2-step (120 min-5 min); capture Ab-1; Diluent 1 + 5% NCS; frataxin 12.3 pg/mL
[24] = biological target: Recombinant, his tagged full length human frataxin protein (Abcam ab95502) (human) (UniProt Q16595); test: Simoa sandwich 2-step (120 min-5 min); capture Ab-1; Diluent 1 + 5% NCS; frataxin 0.274 pg/mL
[25] = biological target: Recombinant, his tagged full length human frataxin protein (Abcam ab95502) (human) (UniProt Q16595); test: Simoa sandwich 2-step (120 min-5 min); capture Ab-1; Diluent 1 + 10% NCS; frataxin 37.0 pg/mL

Sequence of UniProt Q16595 (Q16595 42-210): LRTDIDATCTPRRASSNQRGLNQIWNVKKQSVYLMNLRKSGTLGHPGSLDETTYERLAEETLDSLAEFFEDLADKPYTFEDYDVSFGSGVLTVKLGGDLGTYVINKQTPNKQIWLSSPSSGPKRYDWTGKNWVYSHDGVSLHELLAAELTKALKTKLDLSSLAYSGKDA

Question: “Ab-3, mouse monoclonal [18A5DB1] to Frataxin (Abcam ab110328) (antibody)” was tested. Which LOD [1] did it give?
Answer: 0.27 pg/mL

Question: And the LOD [2]?
Answer: 0.28 pg/mL

Question: What about the Estimated LLOQ [3] of the same substance?
Answer: 1.16 pg/mL

Question: And the LOD [3]?
Answer: 0.551 pg/mL

Question: What about the LOD [4] of the same substance?
Answer: 0.132 pg/mL

Question: And the LOD [5]?
Answer: 0.272 pg/mL

Question: And the Ave AEB [6]?
Answer: 15.1 AEB

Question: What about the S/B [6] of the same substance?
Answer: 145

Question: And the Ave AEB [7]?
Answer: 23.7 AEB

Question: And the S/B [7]?
Answer: 193

Question: And the Ave AEB [8]?
Answer: 5.21 AEB

Question: And the S/B [8]?
Answer: 54.6

Question: And the Ave AEB [9]?
Answer: 0.737 AEB

Question: And the S/B [9]?
Answer: 7.72

Question: What about the Ave AEB [10] of the same substance?
Answer: 28.5 AEB

Question: What about the S/B [10] of the same substance?
Answer: 576

Question: And the Ave AEB [11]?
Answer: 13.7 AEB

Question: And the S/B [11]?
Answer: 747

Question: What about the AEB Rep1 [12] of the same substance?
Answer: 0.118 AEB

Question: What about the AEB Rep2 [12] of the same substance?
Answer: 0.141 AEB

Question: What about the Ave AEB [12] of the same substance?
Answer: 0.13 AEB

Question: What about the S/B [12] of the same substance?
Answer: 5.74

Question: And the AEB Rep1 [13]?
Answer: 0.0328 AEB

Question: And the AEB Rep2 [13]?
Answer: 0.028 AEB

Question: And the Ave AEB [13]?
Answer: 0.0304 AEB

Question: And the S/B [13]?
Answer: 1.34

Question: And the Ave AEB [14]?
Answer: 0.521 AEB

Question: And the S/B [14]?
Answer: 11.6

Question: What about the Ave AEB [15] of the same substance?
Answer: 0.0421 AEB

Question: And the S/B [15]?
Answer: 2.3

Question: And the AEB rep1 [16]?
Answer: 3.57 AEB

Question: What about the AEB rep2 [16] of the same substance?
Answer: 3.99 AEB

Question: And the AEB rep3 [16]?
Answer: 3.61 AEB

Question: What about the Ave AEB [16] of the same substance?
Answer: 3.73 AEB

Question: And the S/B [16]?
Answer: 451

Question: What about the AEB rep1 [17] of the same substance?
Answer: 0.0165 AEB

Question: And the AEB rep2 [17]?
Answer: 0.0248 AEB

Question: What about the AEB rep3 [17] of the same substance?
Answer: 0.0202 AEB

Question: What about the Ave AEB [17] of the same substance?
Answer: 0.0205 AEB

Question: What about the S/B [17] of the same substance?
Answer: 2.48

Question: What about the AEB rep1 [18] of the same substance?
Answer: 0.129 AEB

Question: What about the AEB rep2 [18] of the same substance?
Answer: 0.117 AEB

Question: What about the AEB rep3 [18] of the same substance?
Answer: 0.142 AEB

Question: What about the Ave AEB [18] of the same substance?
Answer: 0.129 AEB

Question: And the S/B [18]?
Answer: 15.7

Question: What about the AEB Rep1 [19] of the same substance?
Answer: 22.8 AEB

Question: What about the AEB Rep2 [19] of the same substance?
Answer: 22.7 AEB

Question: What about the Ave AEB [19] of the same substance?
Answer: 22.8 AEB

Question: And the S/B [19]?
Answer: 935

Question: And the Ave AEB [20]?
Answer: 0.0609 AEB

Question: And the S/B [20]?
Answer: 3.37

Question: What about the Ave AEB [21] of the same substance?
Answer: 1.27 AEB

Question: What about the S/B [21] of the same substance?
Answer: 70.5

Question: What about the Ave AEB [22] of the same substance?
Answer: 0.156 AEB

Question: What about the S/B [22] of the same substance?
Answer: 8.62

Question: What about the Ave AEB [23] of the same substance?
Answer: 0.123 AEB

Question: What about the S/B [23] of the same substance?
Answer: 11.2

Question: And the Ave AEB [24]?
Answer: 0.0228 AEB

Question: What about the S/B [24] of the same substance?
Answer: 1.26

Question: And the Ave AEB [25]?
Answer: 0.174 AEB

Question: What about the S/B [25] of the same substance?
Answer: 16.2
